Results on seven variants are retold here after IntAct's records for PubMed 14685257.

To fix the notation:
B1: Polyadenylate-binding protein-interacting protein 2 (Homo sapiens), Q9BPZ3 (parent)
chain: MKDPSRSSTSPSIINEDVIINGHSHEDDNPFAEYMWMENEEEFNRQIEEELWEEEFIERCFQEMLEEEEEHEWFIPARDLPQTMDQIQDQFNDLVISDGSSLEDLVVKSNLNPNAKEFVPGVKYGNI

The variants in this experiment derive from B1. As to conditions: with pabp1_human PABPC1, P11940.
Chain of pabp1_human PABPC1, P11940 (P11940 whole entry): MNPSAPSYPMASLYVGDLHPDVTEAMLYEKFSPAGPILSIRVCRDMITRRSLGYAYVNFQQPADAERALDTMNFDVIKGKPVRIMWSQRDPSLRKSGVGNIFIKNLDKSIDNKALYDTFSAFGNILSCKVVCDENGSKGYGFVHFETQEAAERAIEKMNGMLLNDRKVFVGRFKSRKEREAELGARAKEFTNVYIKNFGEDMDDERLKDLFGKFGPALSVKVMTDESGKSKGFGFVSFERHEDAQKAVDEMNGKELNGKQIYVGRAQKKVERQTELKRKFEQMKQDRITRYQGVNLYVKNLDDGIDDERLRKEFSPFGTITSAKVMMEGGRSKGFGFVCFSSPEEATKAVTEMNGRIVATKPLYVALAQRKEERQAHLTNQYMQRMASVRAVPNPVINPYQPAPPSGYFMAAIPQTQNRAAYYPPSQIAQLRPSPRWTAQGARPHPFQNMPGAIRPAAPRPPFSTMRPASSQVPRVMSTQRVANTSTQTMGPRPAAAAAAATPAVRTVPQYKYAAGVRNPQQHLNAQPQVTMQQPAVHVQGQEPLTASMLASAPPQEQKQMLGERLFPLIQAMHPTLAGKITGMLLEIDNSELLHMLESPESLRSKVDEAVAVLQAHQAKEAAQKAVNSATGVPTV
With MKDPSRSSTSPSIINEDVIINGHSHEDDNPFAEYMWMENEEEFNRQIEEELWEEEFIERCFQEMLEEEEEHEWFIPARDLPQTMDQIQDQFNDLVISDGSSLEDLVVKSNLNPNLKEFVPGVKYGNI [A115L], the “effect of a mutation on the interaction” value is “decreasing interaction”.

Consider MKDPSRSSTSPSIINEDVIINGHSHEDDNPFAEYMWMENEEEFNRQIEEELWEEEFIERCFQEMLEEEEEHEWFIPARDLPQTMDQIQDQFNDLVISDGSSLEDLVVKSNLNPNAKEAVPGVKYGNI [F118A], for which the “effect of a mutation on the interaction” value was “disrupting interaction”.

In the case of MKDPSRSSTSPSIINEDVIINGHSHEDDNPFAEYMWMENEEEFNRQIEEELWEEEFIERCFQEMLEEEEEHEWFIPARDLPQTMDQIQDQFNDLVISDGSSLEDLVVKSNANPNAKEFVPGVKYGNI [L111A], the “effect of a mutation on the interaction” value is on record as “decreasing interaction”.

Consider MKDPSRSSTSPSIINEDVIINGHSHEDDNPFAEYMWMENEEEFNRQIEEELWEEEFIERCFQEMLEEEEEHEWFIPARDLPQTMDQIQDQFNDLVISDGSSLEDLVVKSNLNPNAAEFVPGVKYGNI [K116A], for which the “effect of a mutation on the interaction” value was “decreasing interaction”.

With MKDPSRSSTSPSIINEDVIINGHSHEDDNPFAEYMWMENEEEFNRQIEEELWEEEFIERCFQEMLEEEEEHEWFIPARDLPQTMDQIQDQFNDLVISDGSSLEDLVVKSNLNANAKEFVPGVKYGNI [P113A], the “effect of a mutation on the interaction” value was “decreasing interaction”.

Regarding MKDPSRSSTSPSIINEDVIINGHSHEDDNPFAEYMWMENEEEFNRQIEEELWEEEFIERCFQEMLEEEEEHEWFIPARDLPQTMDQIQDQFNDLVISDGSSLEDLVVKSNLNPNAKAFVPGVKYGNI [E117A], the “effect of a mutation on the interaction” value was “decreasing interaction”.

As to MKDPSRSSTSPSIINEDVIINGHSHEDDNPFAEYMWMENEEEFNRQIEEELWEEEFIERCFQEMLEEEEEHEWFIPARDLPQTMDQIQDQFNDLVISDGSSLEDLVVKSNLNPNAKEFVAGVKYGNI [P120A], the “effect of a mutation on the interaction” value is “decreasing interaction”.
